How the values were obtained:
[1] = system: anagen HFs; assay: Intradermal microinjection of protein in mice starting at P48, induced anagen HFs counted on day 14; format: in vivo, mouse; conditions: intradermally microinjected for four days starting at P48; compared on day 14 to BSA; n=7
Excerpt: (§1) FIGS. 2A-2I. SCUBE3 induces hair growth. (2A) Expression of pan-isoform Scube3 mRNA in dorsal mouse skin at indicated postnatal time points. (2B) Time course analysis of dorsal hair growth patterns in representative control (top) and Scube3^−/− mice (bottom) between days P24-30. Mice were shaved before each round of photography. (2C) Representative images of microinjection sites for BSA (top) and rhSCUBE3 (bottom). Affi-gel blue agarose beads are visible. Newly growing anagen HFs are pigmented. (2D) Quantification of induced anagen HFs in response to rhSCUBE3 on day 14. n=7; *** P<0.0002. (2E) Representative images of microinjection sites for BSA (left) and rhSCUBE3 (right) on 20-month-old mice. Affi-gel blue agarose beads are visible. Newly growing anagen HFs are pigmented. (2F) Quantification of induced anagen HFs in aged mice on day 14 after protein injection. n=9; * P<0.0001. (2G) Expression of K14, KI67 and SCUBE3 mRNA in human anagen occipital scalp HF. SCUBE3 mRNA is specifically and highly expressed in DP and adjacent dermal sheath cup. (2H) Representative images of microinjection sites for BSA and rhSCUBE3 in human occipital scalp HF-on-SCID mouse xenograft model. (2I) Scattered plot of human and mouse anagen HF quantification. Striped dots represent rhSCUBE3-injected samples and solid dots represent BSA-injected samples. Tissue sections were counterstained with DAPI in 2A, 2G. […]

[2] = system: grafted human occipital scalp HFs; assay: Human occipital scalp HF-on-SCID mouse xenograft model, grafted human HFs; format: in vivo; conditions: three daily doses on post-grafting day 30; counted on post-grafting day 50; compared to BSA (n=5), rhSCUBE3 n=6
Excerpt: as §1, with “SCUBE3 mRNA is specifically and highly expressed in DP and adjacent dermal sheath cup. (2H) Representative images of microinjection sites for BSA and rhSCUBE3 in human occipital scalp HF-on-SCID mouse xenograft model.” left out, “quantification.” for “quantification. Striped dots represent rhSCUBE3-injected samples and solid dots represent BSA-injected samples. Tissue sections were counterstained with DAPI in 2A, 2G.”
(§2) To start evaluating the translational potential of SCUBE3, first we examined its expression pattern in human anagen HFs from occipital scalp of volunteer donors, undergoing autologous hair transplantation procedures. […] Anagen phase human and adjacent mouse host HFs were then counted at each injection site on post-grafting day 50. […]

[3] = system: anagen HFs; assay: Intradermal protein microinjection in aged mice over 20 months of age, induced anagen HFs on day 14; format: in vivo, mouse; conditions: day 14 after protein injection, n=9
Excerpt: as §1

[4] = system: mouse host HFs; assay: Human occipital scalp HF-on-SCID mouse xenograft model, adjacent mouse host HFs; format: in vivo; conditions: three daily doses on post-grafting day 30; counted on post-grafting day 50; compared to BSA (n=5), rhSCUBE3 n=6
Excerpt: as §1, with “SCUBE3 mRNA is specifically and highly expressed in DP and adjacent dermal sheath cup. (2H) Representative images of microinjection sites for BSA and rhSCUBE3 in human occipital scalp HF-on-SCID mouse xenograft model.” left out, “quantification.” for “quantification. Striped dots represent rhSCUBE3-injected samples and solid dots represent BSA-injected samples. Tissue sections were counterstained with DAPI in 2A, 2G.”
as §2

B1: rhSCUBE3: recombinant human SCUBE3 (Signal Peptide, CUB Domain And EGF Like Domain Containing 3) protein (protein, listed as Homo sapiens)
chain: CGGELGEFTGYIESPNYPGNYPAGVECIWNINPPPKRKILIVVPEIFLPSEDECGDVLVMRKNSSPSSITTYETCQTYERPIAFTARSRKLWINFKTSEANSARGFQIPYVTYDEDYEQLVEDIVRDGRLYASENHQEILKDKKLIKAFFEVLAHPQNYFKYTEKHKEMLPKSFIKLLRSKVSSFLRPYK
- new hair growth (induced anagen HFs), mean difference compared to BSA [1]: 18+/−3.44
- anagen entry of grafted human HFs [2]: accelerated anagen entry of grafted human HFs
- new hair growth at the injection sites (induced anagen HFs), mean difference vs BSA [3]: 31.78+/−2.40
- new anagen of mouse host HFs [4]: stimulated new anagen of mouse host HFs
